Test results: the supplement of paper PMC7125110
± gives the standard error. For part of these data: Fewer inactive variants are shown than the library holds.

B1: glmS ribozyme (parent)
chain: AUAAAAGCGCCAGAACUACAGAAAUGUAGUUGACGAGGAGGAGGUUUAUCGAAUUUUCGGCGGAUGCCUCCAAA

How the values were obtained:
Settings in all cases: with glucosamine-6-phosphate
glucosamine-6-phosphate [1] = variants of: B1; assay: kcat; higher = faster cleavage; RNA array
How it was run: (§1)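 Barcoded ribozyme variants, transcribed in situ by E. coli RNA polymerase on sequenced MiSeq chips, were followed via a hybridised Cy3 probe at 37 °C. Glucosamine-6-phosphate ranged from 40 μM to 10 mM in HEPES/KCl/Mg(OAc)2 buffer. kobs came from decay fits to per-tile medians, and kcat and KM from weighted Michaelis–Menten fits.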

glucosamine-6-phosphate [2] = variants of: B1; assay: self-cleavage kobs at 160 uM GlcN6P; higher = faster cleavage; RNA array
How it was run: as §1

glucosamine-6-phosphate [3] = variants of: B1; assay: self-cleavage kobs at 10000 uM GlcN6P; higher = faster cleavage; RNA array
How it was run: as §1

glucosamine-6-phosphate [4] = variants of: B1; assay: self-cleavage kobs at 640 uM GlcN6P; higher = faster cleavage; RNA array
How it was run: as §1

glucosamine-6-phosphate [5] = variants of: B1; assay: self-cleavage kobs at 2500 uM GlcN6P; higher = faster cleavage; RNA array
How it was run: as §1

glucosamine-6-phosphate [6] = variants of: B1; assay: KM; higher = weaker cofactor use; RNA array
How it was run: as §1

glucosamine-6-phosphate [7] = variants of: B1; assay: self-cleavage kobs at 40 uM GlcN6P; higher = faster cleavage; RNA array
How it was run: as §1

Variant	kcat (glucosamine-6-phosphate [1])	self-cleavage kobs at 160 uM GlcN6P (glucosamine-6-phosphate [2])	self-cleavage kobs at 10000 uM GlcN6P (glucosamine-6-phosphate [3])	self-cleavage kobs at 640 uM GlcN6P (glucosamine-6-phosphate [4])	self-cleavage kobs at 2500 uM GlcN6P (glucosamine-6-phosphate [5])	KM (glucosamine-6-phosphate [6])	self-cleavage kobs at 40 uM GlcN6P (glucosamine-6-phosphate [7])
A12G G63C	< 1e-05 s⁻¹	< 1e-05 s⁻¹	< 1e-05 s⁻¹				
G41U U55A	0.000121 ± 2e-05 s⁻¹	5.55e-05 ± 1.3e-05 s⁻¹	0.000105 ± 1.7e-05 s⁻¹	0.000132 ± 2e-05 s⁻¹	0.000105 ± 3.7e-05 s⁻¹		
A15U U56G	0.00786 ± 0.0027 s⁻¹	0.000265 ± 5e-05 s⁻¹	0.00565 ± 0.00088 s⁻¹	0.00143 ± 0.00018 s⁻¹	0.00363 ± 0.00053 s⁻¹	3290 ± 1500 µM	0.000149 ± 2.5e-05 s⁻¹
A14C U31C	0.00408 ± 0.0011 s⁻¹	0.000307 ± 4.3e-05 s⁻¹	0.00399 ± 0.00045 s⁻¹	0.000748 ± 9e-05 s⁻¹	0.00178 ± 0.00024 s⁻¹	2330 ± 860 µM	8.42e-05 ± 1.1e-05 s⁻¹
C16A G51A U56G C68G	1.58e-05 ± 2.3e-06 s⁻¹						
U46C C68U	0.000934 ± 0.0002 s⁻¹	7.49e-05 ± 1.3e-05 s⁻¹	0.000743 ± 7.7e-05 s⁻¹	0.000387 ± 6e-05 s⁻¹	0.000933 ± 0.00014 s⁻¹	1480 ± 580 µM	2.43e-05 ± 7.6e-06 s⁻¹
G37A A53U C71U	0.00135 ± 0.00053 s⁻¹		0.00165 ± 0.00033 s⁻¹	0.000464 ± 8.3e-05 s⁻¹	0.000695 ± 0.00015 s⁻¹		7.9e-05 ± 3.8e-05 s⁻¹
A48G U55G	9.18e-05 ± 6.4e-06 s⁻¹		8.43e-05 ± 7.8e-06 s⁻¹	4.19e-05 ± 7.6e-06 s⁻¹	0.000108 ± 3.8e-05 s⁻¹	759 ± 210 µM	< 1e-05 s⁻¹
C16A	0.00334 ± 0.00087 s⁻¹	0.000152 ± 5e-06 s⁻¹	0.00269 ± 8.5e-05 s⁻¹	0.000602 ± 3.1e-05 s⁻¹	0.0017 ± 7.8e-05 s⁻¹	2630 ± 840 µM	6.14e-05 ± 1.3e-06 s⁻¹
U46C U49G	0.000109 ± 8.3e-06 s⁻¹		9.78e-05 ± 1.5e-05 s⁻¹	4.66e-05 ± 1.2e-05 s⁻¹	8.96e-05 ± 1.6e-05 s⁻¹	817 ± 220 µM	
C58A A64G C71A	2.69e-05 ± 7.4e-06 s⁻¹						
A14U G66U	0.000298 ± 3.6e-05 s⁻¹	4.39e-05 ± 1.8e-05 s⁻¹	0.000243 ± 2.6e-05 s⁻¹	6.34e-05 ± 1.1e-05 s⁻¹	0.000175 ± 2.9e-05 s⁻¹	2140 ± 550 µM	
A14C C50A	< 1e-05 s⁻¹						
A6U U55C	0.000167 ± 2.1e-06 s⁻¹		0.000148 ± 2.5e-05 s⁻¹	5.6e-05 ± 1.6e-05 s⁻¹	0.000112 ± 1.5e-05 s⁻¹	1250 ± 45 µM	
G32A C67G	0.000177 ± 2.7e-05 s⁻¹		0.000164 ± 2.4e-05 s⁻¹	4.83e-05 ± 6.9e-06 s⁻¹	9.14e-05 ± 1.2e-05 s⁻¹	1890 ± 580 µM	< 1e-05 s⁻¹
A64G U69A	8.09e-05 ± 8.7e-06 s⁻¹		7.42e-05 ± 1.3e-05 s⁻¹	3.36e-05 ± 1.6e-05 s⁻¹	4.75e-05 ± 1.6e-05 s⁻¹	1230 ± 510 µM	< 1e-05 s⁻¹

Variant	kcat (glucosamine-6-phosphate [1])	self-cleavage kobs at 160 uM GlcN6P (glucosamine-6-phosphate [2])	self-cleavage kobs at 10000 uM GlcN6P (glucosamine-6-phosphate [3])	self-cleavage kobs at 640 uM GlcN6P (glucosamine-6-phosphate [4])	self-cleavage kobs at 2500 uM GlcN6P (glucosamine-6-phosphate [5])	KM (glucosamine-6-phosphate [6])	self-cleavage kobs at 40 uM GlcN6P (glucosamine-6-phosphate [7])
C10A U69C	1.7e-05 ± 1.9e-06 s⁻¹						
U30A U46G	0.000804 ± 0.00016 s⁻¹		0.000702 ± 8.5e-05 s⁻¹		0.000638 ± 0.00022 s⁻¹		4.09e-05 ± 1.5e-05 s⁻¹
U30G A52G	0.000498 ± 6.7e-05 s⁻¹	4.03e-05 ± 2e-05 s⁻¹	0.000388 ± 4.4e-05 s⁻¹	9.63e-05 ± 1.4e-05 s⁻¹	0.00033 ± 5.9e-05 s⁻¹	2430 ± 620 µM	
A12C A15U	0.00259 ± 0.00075 s⁻¹	0.000208 ± 3.6e-05 s⁻¹	0.00271 ± 0.00031 s⁻¹	0.00126 ± 0.0002 s⁻¹	0.0012 ± 0.00021 s⁻¹	1430 ± 600 µM	7.96e-05 ± 8.9e-06 s⁻¹
A48U A64U	0.000129 ± 1.1e-05 s⁻¹		8.33e-05 ± 1.3e-05 s⁻¹		4.13e-05 ± 1.2e-05 s⁻¹	5510 ± 1000 µM	
G41U A42G	0.000998 ± 0.00021 s⁻¹	9.47e-05 ± 2e-05 s⁻¹	0.000843 ± 0.00012 s⁻¹	0.000285 ± 6.2e-05 s⁻¹	0.000816 ± 0.00012 s⁻¹	1240 ± 450 µM	4.79e-05 ± 9.1e-06 s⁻¹
G37A G40A	0.000755 ± 0.00012 s⁻¹	3.73e-05 ± 1.3e-05 s⁻¹	0.000583 ± 9.3e-05 s⁻¹	0.000135 ± 3.7e-05 s⁻¹	0.000366 ± 7.6e-05 s⁻¹	2830 ± 820 µM	
U55A G59A	6.57e-05 ± 1.4e-05 s⁻¹		5.69e-05 ± 1.3e-05 s⁻¹		5.76e-05 ± 1.7e-05 s⁻¹		
A6U U30A A36C	< 1e-05 s⁻¹	< 1e-05 s⁻¹	< 1e-05 s⁻¹				
G37C U69A	1.84e-05 ± 4.8e-06 s⁻¹						
C16U U46A	0.00336 ± 0.00057 s⁻¹	0.00012 ± 5.1e-05 s⁻¹	0.00249 ± 0.00038 s⁻¹	0.000641 ± 0.00012 s⁻¹	0.00176 ± 0.00024 s⁻¹	2760 ± 760 µM	5.67e-05 ± 1.4e-05 s⁻¹
U46A C50U C58A C71G	1.07e-05 ± 3e-06 s⁻¹						
G41U A64G	0.000821 ± 6e-05 s⁻¹	3.5e-05 ± 9.6e-06 s⁻¹	0.000621 ± 4.9e-05 s⁻¹	0.00015 ± 2.3e-05 s⁻¹	0.000414 ± 5.2e-05 s⁻¹	2970 ± 430 µM	
A12U A14U	0.00461 ± 0.0012 s⁻¹	0.000269 ± 5.6e-05 s⁻¹	0.00449 ± 0.00046 s⁻¹	0.00119 ± 0.00018 s⁻¹	0.00188 ± 0.00031 s⁻¹	2000 ± 750 µM	0.00011 ± 1.2e-05 s⁻¹
A15U U54A	0.00741 ± 0.001 s⁻¹	0.00059 ± 0.00026 s⁻¹	0.00623 ± 0.0012 s⁻¹	0.00262 ± 0.00048 s⁻¹	0.00516 ± 0.0014 s⁻¹	1360 ± 360 µM	
